Results taken from the Immune Epitope Database (IEDB).
pIC50, pKd: −log10 of the molar value.

Legend:
[1] = biological target: HLA-A*24:02; assay: IEDB peptide-MHC binding, purified MHC/competitive/fluorescence; ≥ and ≤ were set here for values at or beyond the usual limits of such assays
[2] = biological target: HLA-B*08:01; assay: as above
[3] = biological target: HLA-A*02:03; assay: IEDB peptide-MHC binding, purified MHC/competitive/fluorescence; filed as Kd, often an IC50 or EC50 that approximates it; ≥ and ≤ were set here for values at or beyond the usual limits of such assays
[4] = biological target: HLA-A*02:06; assay: as above; conditions: source organism: Human immunodeficiency virus 1
[5] = biological target: HLA-A*68:02; assay: as above
[6] = biological target: HLA-A*69:01; assay: as above
[7] = biological target: HLA-A*02:01; assay: as above
[8] = biological target: HLA-A*30:01; assay: as above; conditions: source organism: Human immunodeficiency virus 1
[9] = biological target: HLA-A*31:01; assay: as above; conditions: source organism: Human immunodeficiency virus 1
[10] = biological target: HLA-B*39:01; assay: as above
[11] = biological target: HLA-A*02:16; assay: as above; conditions: source organism: Burkholderia pseudomallei K96243
[12] = biological target: HLA-A*02:01; assay: IEDB peptide-MHC binding, purified MHC/competitive/fluorescence; ≥ and ≤ were set here for values at or beyond the usual limits of such assays; conditions: source organism: Zaire ebolavirus
[13] = biological target: HLA-B*07:02; assay: as above
[14] = biological target: HLA-B*15:01; assay: as above; conditions: source organism: Zaire ebolavirus
[15] = biological target: HLA-A*01:01; assay: IEDB peptide-MHC binding, purified MHC/competitive/fluorescence; filed as Kd, often an IC50 or EC50 that approximates it; ≥ and ≤ were set here for values at or beyond the usual limits of such assays
[16] = biological target: HLA-A*02:12; assay: as above
[17] = biological target: HLA-A*02:19; assay: as above
[18] = biological target: HLA-A*03:01; assay: as above
[19] = biological target: HLA-A*26:01; assay: as above
[20] = biological target: HLA-A*29:02; assay: as above
[21] = biological target: HLA-B*18:01; assay: as above
[22] = biological target: HLA-B*27:03; assay: as above
[23] = biological target: HLA-B*51:01; assay: as above
[24] = biological target: HLA-B*15:01; assay: as above
[25] = biological target: HLA-B*15:17; assay: as above; conditions: source organism: Human immunodeficiency virus 1
[26] = biological target: HLA-B*57:01; assay: as above
[27] = biological target: HLA-A*24:03; assay: as above; conditions: source organism: Entamoeba dispar SAW760
[28] = biological target: HLA-B*46:01; assay: as above; conditions: source organism: Entamoeba dispar SAW760
[29] = source organism: Human immunodeficiency virus 1
[30] = source organism: Zaire ebolavirus
[31] = source organism: Vaccinia virus
[32] = source organism: Cryptosporidium parvum Iowa II
[33] = source organism: Entamoeba dispar SAW760

## DFHERPVIL
[1]; source organism: Variola virus
  pIC50: 7.50
[2]; source organism: Variola virus
  pIC50: ≤ 4.05

## EELRSLFNTI
[3]; [29]
  pKd: ≤ 4.70
[4]
  pKd: 5.94
[5]; [29]
  pKd: ≤ 4.70

## EELRSLFNTV
[4]
  pKd: 6.52
[5]; [29]
  pKd: 6.49
[6]; [29]
  pKd: 6.52

## EKLKSLFNTI
[7]; [29]
  pKd: ≤ 4.70
[3]; [29]
  pKd: 7.43
[4]
  pKd: 8.74
[8]
  pKd: 7.68
[9]
  pKd: ≤ 4.70
[5]; [29]
  pKd: ≤ 4.70
[10]; [29]
  pKd: 6.19

## ELAKPWPGA
[7]; source organism: Burkholderia pseudomallei K96243
  pKd: 5.92
[11]
  pKd: ≤ 4.70

## FSILNRKAI
[12]
  pIC50: ≤ 3.63
[1]; [30]
  pIC50: 5.26
[13]; [30]
  pIC50: 4.33
[2]; [30]
  pIC50: 4.67
[14]
  pIC50: 4.45

## HSDTAKAFA
[15]; source organism: Escherichia coli
  pKd: ≤ 4.70

## INPIVKTSL
[13]; [31]
  pIC50: 4.68
[2]; [31]
  pIC50: ≤ 4.05

## KIFKVTGEF
[7]; [32]
  pKd: ≤ 4.70
[3]; [32]
  pKd: ≤ 4.70
[16]; [32]
  pKd: ≤ 4.70
[17]; [32]
  pKd: ≤ 4.70
[18]; [32]
  pKd: ≤ 4.70
[19]; [32]
  pKd: ≤ 4.70
[20]; [32]
  pKd: 6.13
[5]; [32]
  pKd: ≤ 4.70
[6]; [32]
  pKd: ≤ 4.70
[21]; [32]
  pKd: ≤ 4.70
[22]; [32]
  pKd: ≤ 4.70
[10]; [32]
  pKd: ≤ 4.70
[23]; [32]
  pKd: ≤ 4.70

## KSLYNTVATLY
[15]; [29]
  pKd: ≤ 4.70
[3]; [29]
  pKd: ≤ 4.70
[8]
  pKd: ≤ 4.70
[24]; [29]
  pKd: ≤ 4.70
[25]
  pKd: 8.19
[21]; [29]
  pKd: ≤ 4.70
[26]; [29]
  pKd: 6.02

## LVGNTLTTC
[7]; [33]
  pKd: ≤ 4.70
[3]; [33]
  pKd: ≤ 4.70
[16]; [33]
  pKd: 5.34
[17]; [33]
  pKd: ≤ 4.70
[18]; [33]
  pKd: ≤ 4.70
[27]
  pKd: ≤ 4.70
[19]; [33]
  pKd: ≤ 4.70
[20]; [33]
  pKd: ≤ 4.70
[24]; [33]
  pKd: ≤ 4.70
[21]; [33]
  pKd: ≤ 4.70
[22]; [33]
  pKd: ≤ 4.70
[10]; [33]
  pKd: ≤ 4.70
[28]
  pKd: ≤ 4.70
[23]; [33]
  pKd: ≤ 4.70
[26]; [33]
  pKd: ≤ 4.70
